In patent US20170296640A1 (IMMATICS BIOTECHNOLOGIES, published 2017) one finds peptide exchange yield data, which are given here for 22 molecules.

The chains are these.
B1: LLAGQATTAYF (SEQ ID NO: 94) (peptide)
peptide: LLAGQATTAYF
B2: HLSSTTAQV (SEQ ID NO: 91) (peptide)
peptide: HLSSTTAQV
B3: HLDEVFLEL (SEQ ID NO: 90) (peptide)
peptide: HLDEVFLEL
B4: FLQELQLEHA (SEQ ID NO: 84) (peptide)
peptide: FLQELQLEHA
B5: FLMDDNMSNTL (SEQ ID NO: 83) (peptide)
peptide: FLMDDNMSNTL
B6: LLFDLIPVVSV (SEQ ID NO: 95) (peptide)
peptide: LLFDLIPVVSV
B7: GLAPAEVVVATVA (SEQ ID NO: 85) (peptide)
peptide: GLAPAEVVVATVA
B8: MLQDGIARL (SEQ ID NO: 98) (peptide)
peptide: MLQDGIARL
B9: KLLFEIASA (SEQ ID NO: 92) (peptide)
peptide: KLLFEIASA
B10: FLLDLDPLL (SEQ ID NO: 9) (peptide)
peptide: FLLDLDPLL
B11: GLFARIIMI (SEQ ID NO: 87) (peptide)
peptide: GLFARIIMI
B12: RLIRTIAAI (SEQ ID NO: 100) (peptide)
peptide: RLIRTIAAI
B13: FLIDGSSSV (SEQ ID NO: 82) (peptide)
peptide: FLIDGSSSV
B14: LLLNENESLFL (SEQ ID NO: 96) (peptide)
peptide: LLLNENESLFL
B15: KLLGSLQLL (SEQ ID NO: 93) (peptide)
peptide: KLLGSLQLL
B16: GLTALHVAV (SEQ ID NO: 89) (peptide)
peptide: GLTALHVAV
B17: GLATIRAYL (SEQ ID NO: 86) (peptide)
peptide: GLATIRAYL
B18: ALYAVIEKA (SEQ ID NO: 8) (peptide)
peptide: ALYAVIEKA
B19: FIFSYITAV (SEQ ID NO: 81) (peptide)
peptide: FIFSYITAV
B20: LLNFSPGNL (SEQ ID NO: 97) (peptide)
peptide: LLNFSPGNL
B21: GLFDNRSGLPEA (SEQ ID NO: 88) (peptide)
peptide: GLFDNRSGLPEA
B22: QLYDGATALFL (SEQ ID NO: 99) (peptide)
peptide: QLYDGATALFL

This experiment concerns the target T1, HLA-A*02:01 (peptide-receptive MHC class I monomer after UV cleavage of the UV-sensitive ligand) (human).
T1 construct: MHC monomers loaded by UV-ligand exchange and captured on streptavidin plates
The experiment is described as follows: UV ligand-exchange ELISA; exchange yield grade (+ >=10%, ++ >=20%, +++ >=50%, ++++ >=75%). An outline of the steps: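 UV-exchange pMHC monomers, 100-fold diluted → streptavidin capture 1 h 37 °C → HRP anti-β2m 2 ug/ml 1 h 37 °C → TMB, A450. Yield from HLA-A*02:01/MLA-001 monomer standard curve, 15-500 ng/ml. Only stably bound peptides keep β2m-containing complexes intact.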
In general terms: ELISA stands for enzyme-linked immunosorbent assay.
The molecule B1 displayed a peptide exchange yield of 50 to 75%.

Molecule B2 gave a peptide exchange yield of 20 to 50%.

B3 registered a peptide exchange yield of 50 to 75%.

For the molecule B4, the peptide exchange yield was in the range of 50 to 75%.

As to B5, the peptide exchange yield fell in the range of 50 to 75%.

As for B6, the peptide exchange yield is 50 to 75%.

Turning to B7, the peptide exchange yield lay in the range of 50 to 75%.

As to B8, the peptide exchange yield lay in the range of 50 to 75%.

B9 had a peptide exchange yield of 50 to 75%.

In turn, B10 returned a peptide exchange yield of 50 to 75%.

In turn, B11 returned a peptide exchange yield of 20 to 50%.

For the molecule B12, the peptide exchange yield was 50 to 75%.

Turning to B13, the peptide exchange yield was 50 to 75%.

Molecule B14 had a peptide exchange yield of 50 to 75%.

Take B15: the peptide exchange yield was ≥ 75%.

With B16, the peptide exchange yield was in the range of 50 to 75%.

In turn, B17 showed a peptide exchange yield of 50 to 75%.

The molecule B18 had a peptide exchange yield of 50 to 75%.

On to B19, for which the peptide exchange yield lay within 20 to 50%.

Turning to B20, the peptide exchange yield was in the range of 10 to 20%.

Take B21: the peptide exchange yield was in the range of 50 to 75%.

In the case of B22, the peptide exchange yield lay in the range of 20 to 50%.
